Measured values reported in patent US8883967B2, “Branched amphipathic oligo-peptides that self-assemble into vesicles” (Kansas State University Research Foundation, priority 2009, dated 2014).
No end group written: not given here.

Legend:
[1] = tested on: Human Lens Epithelial (HLE) cells; test: Uptake of 5,6-carboxyfluorescein-loaded peptide vesicles by cells, fluorescence microscopy; type: cell-based; conditions: 12 hours of incubation, 37° C.
Experimental: Human Lens Epithelial (HLE) cells were obtained from Dr. Dolores Takemoto's lab (Kansas State University). These adherent cells were grown to roughly 80% confluence on coverslips placed in 12 well plates with 1 ml Dulbecco's Modified Eagle Medium (DMEM), Stock solutions of bis(h9)-K-K4 and bis(h5)-K-K4 dissolved in DDI water were mixed together using the protocol described in Example 4 to achieve a final concentration of 0.025 mM of each peptide in the mixture and 600 μL final volume. The sample was then dried by spinning in a speed vacuum for about 3 hours until almost all of the solvent was removed. The dried sample was then rehydrated with a 0.5 mM solution of the fluorescent dye 5,6-carboxyfluorescein (MW=376.3 Da) dissolved in DDI water. The pH of the sample was adjusted to 7.4 using a dilute solution of NaOH. Next, 500 μL of the DMEM was replaced with the peptide vesicle solution loaded with 5,6-carboxyfluorescein. The cells were then allowed to grow at 37° C. under 5% CO2. At 4 hours and 12 hours after incubation with dye-loaded vesicles, the cells were washed twice with phosphate buffered saline (PBS) and fixed using 0.4% paraformaldehyde. The fixed cells were then mounted on a glass slide and pictures were taken using a fluorescence microscope. […]

[2] = linear peptides, low and neutral pH; cited from earlier work
[3] = Sedimentation analysis (analytical ultracentrifugation), N-acetyl capped peptides; type: physicochemical; conditions: 1 mM, DDI water, pH 7, 40,000 rpm, 20° C.
Experimental: In this procedure, N-acetyl capped peptides were prepared using the protocol described in Example 1 above and subjected to analytical ultracentrifugation for sedimentation analysis. Three different samples were prepared from bis(h5)-K-K4 alone, bis(h9)-K-K4 alone, and a 1:1 molar ratio mixture of the two peptides, each with a final peptide concentration of 1 mM dissolved in DDI water and pH adjusted to 7 using a dilute solution of NaOH. For the analyses, 350 μL of each sample was loaded into a Beckman XL-I Analytical Ultracentrifuge cell and spun at 40,000 rpm for 3 hours at 20° C., with data collected using interference optics. The raw data was then processed using DCDT+2.2.1 software to obtain g(s*) distribution. Theoretical distribution (sum of individual peptide distribution) was obtained using OriginLab v. 7.0 software.

[4] = Confocal microscopy of vesicles in 5,6-carboxyfluorescein solution; type: physicochemical; conditions: single peptide alone
Experimental: About 25 μL of the sample was then mounted on a glass slide and covered with a coverslip and sealed. The slides were allowed to sit for 48-72 hours before pictures were taken using a confocal microscope. Upon sitting in the unbuffered 5,6-carboxyfluorescein solution for 48 hours, larger spherical entities than observed with TEM are formed, which can be seen with the light microscope. Specifically, in FIG. 7, peptides bis(h5)-K-K4 and bis(h9)-K-K4 at a 1:1 molar ratio when added to DDI water form larger vesicles on the order of 2-10 μm in diameter. […] The vesicles in this figure are large enough to have fluorescently-labeled peptide aggregates trapped within the vesicles.

For “5,6-carboxyfluorescein [free fluorescent dye]”, the “cellular uptake of dye” value [1] was “hardly any uptake of the dye”.

For “KKKFLIVIGSIIKKK [Linear … flanked by three lysine groups, from earlier studies (US 2009/0105449)]”, the vesicle formation [2] is given as “do not form vesicles”.

For “KKKFLIVIKKK [Linear FLIVI flanked by three lysine groups, from earlier studies (US 2009/0105449)]”, the vesicle formation [2] is given as “do not form vesicles”.

For “N-acetyl capped bis(h5)-K-K4: bis(h5)-K-K4 with the N-termini of both hydrophobic tails capped with an acetyl group (chain 1 Ac-FLIVIKKKKK-NH2; chain 2 Ac-FLIVI; also: branched: chain 2 tail attached to branch lysine K6 of chain 1, linkage amine not given here)”, the “apparent S value” [3] was “around 6 S”.

For “N-acetyl capped bis(h9)-K-K4: bis(h9)-K-K4 with the N-termini of both hydrophobic tails capped with an acetyl group (chain 1 Ac-FLIVIGSIIKKKKK-NH2; chain 2 Ac-FLIVIGSII; also: branched: chain 2 tail attached to branch lysine K10 of chain 1, linkage amine not given here)”, the “apparent S value” [3] was ~10 S.

For “bis(h5)-K-K4: Branched amphipathic peptide: two FLIVI (SEQ ID NO: 4) tails on a branch lysine, KKKK C-terminal carboxyamide”, the “ability of the peptide by itself to form vesicle structures” value [4] was “unable to form these structures”.

With “bis(h9)-K-K4: Branched amphipathic peptide: two FLIVIGSII (SEQ ID NO: 3) tails on a branch lysine, KKKK C-terminal carboxyamide” the “ability of the peptide by itself to form vesicle structures” value [4] was “able to form these vesicle-like structures” and the “stability of vesicle-like structures formed by the peptide alone” value [4] was “somewhat unstable and rapidly fuse to produce the larger structures”.
